# Assay results as given in publication doi:10.1101/2023.12.21.572875, “Structure of the human systemic RNAi defective transmembrane protein 1 (hSIDT1) reveals the conformational flexibility of its lipid binding domain” (bioRxiv, 2024).
# B1: human systemic RNAi-defective transmembrane family member 1 (hSIDT1), full length, C-terminal GFP-Strep-tag-II fusion (natural protein, UniProt Q9NXL6 20-827, looked up)
# chain: ASPGHPAKSPRQPPAPRRDPFDAARGADFDHVYSGVVNLSTENIYSFNYTSQPDQVTAVRVYVNSSSENLNYPVLVVVRQQKEVLSWQVPLLFQGLYQRSYNYQEVSRTLCPSEATNETGPLQQLIFVDVASMAPLGAQYKLLVTKLKHFQLRTNVAFHFTASPSQPQYFLYKFPKDVDSVIIKVVSEMAYPCSVVSVQNIMCPVYDLDHNVEFNGVYQSMTKKAAITLQKKDFPGEQFFVVFVIKPEDYACGGSFFIQEKENQTWNLQRKKNLEVTIVPSIKESVYVKSSLFSVFIFLSFYLGCLLVGFVHYLRFQRKSIDGSFGSNDGSGNMVASHPIAASTPEGSNYGTIDESSSSPGRQMSSSDGGPPGQSDTDSSVEESDFDTMPDIESDKNIIRTKMFLYLSDLSRKDRRIVSKKYKIYFWNIITIAVFYALPVIQLVITYQTVVNVTGNQDICYYNFLCAHPLGVLSAFNNILSNLGHVLLGFLFLLIVLRRDILHRRALEAKDIFAVEYGIPKHFGLFYAMGIALMMEGVLSACYHVCPNYSNFQFDTSFMYMIAGLCMLKLYQTRHPDINASAYSAYASFAVVIMVTVLGVVFGKNDVWFWVIFSAIHVLASLALSTQIYYMGRFKIDLGIFRRAAMVFYTDCIQQCSRPLYMDRMVLLVVGNLVNWSFALFGLIYRPRDFASYMLGIFICNLLLYLAFYIIMKLRSSEKVLPVPLFCIVATAVMWAAALYFFFQNLSSWEGTPAESREKNRECILLDFFDDHDIWHFLSATALFFSFLVLLTLDDDLDVVRRDQIPVF
# modifications: lacks complex N-glycosylation; density for N-acetylglucosamine at the predicted N-glycosylation sites N57, N67, N83, N136, N282 (not modelled)
# notes: human SIDT1 (systemic RNAi-defective transmembrane family member 1), full length, codon-optimized synthetic gene (GenScript); UniProt Q9NXL6 printed for the AlphaFold model used in model building; Homodimer with C2 symmetry; Not modelled in the structure: the first 40 residues, cytosolic loops CL1 and CL4, Q278-N286 and the C-terminal GFP; The native signal peptide may be removed in the mature …
# Biological target: the molecule itself
# Test: cryo-EM structure; single-particle cryo-EM of purified hSIDT1-GFP at 1 mg/ml in 0.5% digitonin, 25 mM Tris-HCl pH 7.5, 200 mM NaCl, with 100 uM fluorinated octyl-maltoside; no cholesterol or analogues; blotted at 18°C; C2 symmetry imposed
protein,measurement,value
B1,stoichiometry N,2
